Data: the supplement of paper PMC10724198
± gives the standard deviation of the averaged measurements.

test system: Saccharomyces cerevisiae; experiment: protein stability index of tFT-peptide fusion (C-terminal peptide) (PSI (0-1 scale)); higher = more stable (slower turnover); settings: genetic background: wild type; temperature: 30 C
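Further: PSI is a weighted mean of sequencing reads over stability bins, variants kept only with over 10 reads, mCherry proximal and sfGFP distal, peptide attached via GGGS linker.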

| Sequence | protein stability index |
| --- | --- |
| RRPLLSTPAPCS | 0.755 ± 0.025 |
| RRPRKSAAGLRG | 0.768 ± 0.08 |
| RRPRPRSGWILL | 0.69 ± 0.047 |
| RRRRSITEHRSS | 0.69279 ± 0.00018 |
| RRRSSRPAPPPL | 0.698 ± 0.023 |
| RRRTGRRNCTET | 0.712 ± 0.038 |
| RRSIAVEFSGTG | 0.679 ± 0.041 |
| RRSTIHSRLFGA | 0.6786 ± 0.0041 |
| RRTKKERQKSWK | 0.649 ± 0.038 |
| RRVCLIASLWGC | 0.625 ± 0.023 |
| RRVELCWAAGVR | 0.641 ± 0.025 |
| RRVGVVAWGRGG | 0.71 ± 0.01 |
| RRVRGGAAEKET | 0.723 ± 0.1 |
| RSALFLLTLVPI | 0.565 ± 0.018 |
| RSDKRTRYRIII | 0.751 ± 0.17 |
| RSFFDRLNRSLS | 0.666 ± 0.032 |
| RSFYDNVLRPFK | 0.776 ± 0.035 |
| RSGENTVKPVRQ | 0.658 ± 0.029 |
| RSGGGRRGVGWV | 0.641 ± 0.067 |
| RSGGVRCNDVRR | 0.675 ± 0.05 |
| RSGSGGVAGRRE | 0.692 ± 0.022 |
| RSLLLINRPTPP | 0.714 ± 0.015 |
| RSLPSSPTPPED | 0.755 ± 0.081 |

| Sequence | protein stability index |
| --- | --- |
| RSLVALSRRLRG | 0.6374 ± 0.0023 |
| RSLWGPRVGVFA | 0.594 ± 0.014 |
| RSPLNTAPLRNR | 0.682 ± 0.025 |
| RSPRSSSPHPIY | 0.7649 ± 0.006 |
| RSPSCSPSAVPL | 0.738 ± 0.063 |
| RSQIHEILLYLF | 0.492 ± 0.082 |
| RSQRRWCSKIRV | 0.625 ± 0.095 |
| RSRLPPPPLLFP | 0.702 ± 0.048 |
| RSRLPTPRLYPP | 0.708 ± 0.01 |
| RSRPPPPPLLFP | 0.701 ± 0.043 |
| RSRSKKKKRKQY | 0.671 ± 0.042 |
| RSRTSKGGNFII | 0.6766 ± 0.0053 |
| RSSNRRAIRSHD | 0.7106 ± 0.0019 |
| RSTPRPSSRDSL | 0.7789 ± 0.006 |
| RSTQRWAVAWSG | 0.678 ± 0.09 |
| RSVPLLNPGFHY | 0.663 ± 0.026 |
| RSYSSTGAGDDK | 0.721 ± 0.15 |
| RTAGSARIESAL | 0.645 ± 0.017 |
| RTDALKVVADMI | 0.682 ± 0.034 |
| RTEMASLERKSF | 0.696 ± 0.017 |
| RTGGIVATRASE | 0.779 ± 0.13 |
| RTHPPADAWYLS | 0.698 ± 0.035 |
| RTPMAIDALCGS | 0.637 ± 0.045 |

| Sequence | protein stability index |
| --- | --- |
| RTPPLPLLPPHP | 0.788 ± 0.052 |
| RTQKNMKKSYCG | 0.63 ± 0.0075 |
| RTQMLIIDKRNS | 0.6437 ± 0.0028 |
| RTRMSEGECIST | 0.708 ± 0.053 |
| RTRPAMSRCSKR | 0.704 ± 0.045 |
| RTRRRQELNHSK | 0.735 ± 0.2 |
| RTSNARLLPRIG | 0.681 ± 0.034 |
| RVCYVYIGVTMH | 0.634 ± 0.19 |
| RVDRVFGGFGGS | 0.724 ± 0.14 |
| RVFGSFLSGEQF | 0.70035 ± 0.00058 |
| RVFTGLCRPFGV | 0.736 ± 0.012 |
| RVGERGEGGGVV | 0.638 ± 0.014 |
| RVGYVPNFFCVL | 0.6254 ± 0.0038 |
| RVIIWDRRFLAG | 0.6793 ± 0.0026 |
| RVIVRGREIEIV | 0.6782 ± 0.0018 |
| RVLDNYLTDYCL | 0.675 ± 0.061 |
| RVLPSDSPVAPA | 0.667 ± 0.044 |
| RVLRKIWEWKKG | 0.685 ± 0.051 |
| RVLRREKPVVHC | 0.603 ± 0.008 |
| RVLVRLFGRGKA | 0.688 ± 0.025 |
| RVLVSPPPPLPS | 0.688 ± 0.026 |
| RVMELEGRSKLK | 0.633 ± 0.026 |
| RVQAVTNKVAAR | 0.692 ± 0.012 |

| Sequence | protein stability index |
| --- | --- |
| RVRCPVVSGGRG | 0.707 ± 0.099 |
| RVRSKNIKIRWK | 0.798 ± 0.029 |
| RVTRPSARLLSP | 0.639 ± 0.084 |
| RVVDAPPSGCRS | 0.688 ± 0.037 |
| RVVGCPPLLLPP | 0.639 ± 0.035 |
| RVWRLIGFHVSS | 0.713 ± 0.012 |
| RVYFGRPRSIVL | 0.656 ± 0.025 |
| RVYKCNMKNNSK | 0.661 ± 0.018 |
| RWGANSVSLEGE | 0.737 ± 0.02 |
| RWGCVGWKVVGG | 0.709 ± 0.1 |
| RWGGGQRLSRGT | 0.7082 ± 0.0037 |
| RWGGWFCRLPIG | 0.698 ± 0.05 |
| RYGARAGPPVNL | 0.68 ± 0.054 |
| RYGHSVLQSGIS | 0.73 ± 0.042 |
| RYLSVPGLEIPK | 0.677 ± 0.068 |
| RYRPSPPPPPPH | 0.762 ± 0.054 |
| RYVSCLSIPCLL | 0.6373 ± 0.0018 |
| RYYNDKKEKNIL | 0.706 ± 0.0085 |
| SACRVGKSILDT | 0.728 ± 0.057 |
| SACVEQVHLRWF | 0.642 ± 0.092 |
| SAFFSAWVLVLD | 0.555 ± 0.024 |
| SAGAPRMPARGG | 0.691 ± 0.071 |
| SAKQTYFKRVAQ | 0.66 ± 0.042 |

| Sequence | protein stability index |
| --- | --- |
| SALLLPRARPPD | 0.634 ± 0.055 |
| SALRALRPGSLP | 0.806 ± 0.11 |
| SALSKYFLSVRL | 0.633 ± 0.012 |
| SAPFSPSLTHHP | 0.742 ± 0.14 |
| SAPLVHASSSPQ | 0.722 ± 0.042 |
| SAPPPAPPPPPR | 0.702 ± 0.027 |
| SAQHPSTRHRPP | 0.6 ± 0.035 |
| SARLCPPRGGFR | 0.748 ± 0.018 |
| SARLTPDLPAPS | 0.642 ± 0.017 |
| SARRAALGVWVV | 0.636 ± 0.026 |
| SASPHSPSPPSR | 0.627 ± 0.079 |
| SASRPRRWGLAR | 0.609 ± 0.007 |
| SASVACFCGLVV | 0.7 ± 0.023 |
| SATHLLADPAPG | 0.661 ± 0.088 |
| SATPSSLPLPPS | 0.739 ± 0.029 |
| SAVGRTYGVIII | 0.673 ± 0.029 |
| SAVRLGANLCRT | 0.6979 ± 0.0057 |
| SAVVPYLGWSPV | 0.708 ± 0.015 |
| SCAPRSPCTPPP | 0.718 ± 0.015 |
| SCDIFIYTHLVS | 0.612 ± 0.031 |
| SCFGVSRSAHFL | 0.728 ± 0.027 |
| SCFLAFSFLCLF | 0.5 ± 0.0096 |
| SCFLISIPLGFV | 0.5678 ± 0.0055 |

| Sequence | protein stability index |
| --- | --- |
| SCGMDLALGYAV | 0.689 ± 0.061 |
| SCPPLKYNNKTY | 0.66 ± 0.015 |
| SCPTPRFPQCSS | 0.633 ± 0.034 |
| SCRLYIKVDKSA | 0.6464 ± 0.0034 |
| SCVDHLGCHSSG | 0.739 ± 0.029 |
| SCYLLDFGCIWV | 0.646 ± 0.0083 |
| SDFLTYAEARLD | 0.72 ± 0.12 |
| SDKDIYQRLSYE | 0.643 ± 0.036 |
| SDSAPSPPAFLP | 0.6569 ± 0.0025 |
| SDVKFGFCGVAS | 0.655 ± 0.028 |
| SEAFDSSARRAL | 0.541 ± 0.043 |
| SEEGMGRCSDEE | 0.731 ± 0.028 |
| SEFKLVVGSRSD | 0.715 ± 0.032 |
| SEGKQYITGRWK | 0.702 ± 0.084 |
| SELRFALCPAFL | 0.666 ± 0.019 |
| SERPVPTSISLR | 0.682 ± 0.0069 |
| SERRVKKIEEQI | 0.77 ± 0.084 |
| SERYFFFQCGPH | 0.6802 ± 0.0033 |
| SETGSGGLFSLP | 0.693 ± 0.018 |
| SEVIIAISNKNH | 0.5275 ± 0.0019 |
| SFACLLGRGWVD | 0.719 ± 0.06 |
| SFADFVFMDHCA | 0.696 ± 0.062 |
| SFAKHRNASMGR | 0.691 ± 0.04 |

| Sequence | protein stability index |
| --- | --- |
| SFERPAQAHALA | 0.698 ± 0.012 |
| SFGSPLFFFPFL | 0.736 ± 0.036 |
| SFIGEDHQCVFY | 0.723 ± 0.013 |
| SFILRRISSAIS | 0.645 ± 0.014 |
| SFISPFFCTRPV | 0.638 ± 0.012 |
| SFLFWFFASGWL | 0.56 ± 0.047 |
| SFLHLLCSFVLL | 0.51 ± 0.039 |
| SFMPFVLPLSSP | 0.71 ± 0.023 |
| SFPGVRHSTSDS | 0.676 ± 0.017 |
| SFPYPHRDLVTP | 0.7114 ± 0.0016 |
| SFSLAPSPPLLP | 0.721 ± 0.042 |
| SFSSLVLSSCFW | 0.706 ± 0.026 |
| SGDSVAVGVTGT | 0.689 ± 0.056 |
| SGDVGGGHWVGG | 0.729 ± 0.013 |
| SGFLPPRFLSPS | 0.6895 ± 0.0012 |
| SGFPSCFRPSFY | 0.702 ± 0.021 |
| SGFRALWGLFAL | 0.683 ± 0.014 |
| SGFYQNTCSSLV | 0.756 ± 0.12 |
| SGGAGGSCMRYV | 0.704 ± 0.022 |
| SGGGGGWQEEAG | 0.662 ± 0.027 |
| SGGIPGSPNVRL | 0.657 ± 0.01 |
| SGGRLVVCEGPG | 0.65 ± 0.087 |
